Experiment [1] concerns the target maize Atg8a, split-ubiquitin two-hybrid fusion. Description: split-ubiquitin Y2H. The settings on record: colonies on -LWHA medium versus -LW medium, bait pBT3N-ATG8a, parent: est. 52, read off a plot.
A further experiment deals with GFP-Atg8a. As to the kind of experiment: co-immunoprecipitation, densitometry of immunoblots. The settings on record: Arabidopsis protoplasts; immunoprecipitation with anti-HA antibodies; three biological replicates; parent: est. 1.0; read off a plot. A general note: A western blot detects proteins with antibodies after separation by electrophoresis.
For experiment [2], the target named is HA-Rtn2(mAIM1,2,5,6) (maize).
Experiment [3] deals with HA-Rtn2 (maize).
Experiment [4] has as its target HA-Rtn2 (maize). As to the kind of experiment: co-IP; anti-HA affinity gel on lysates of Arabidopsis protoplasts (wild type; also atg5-1) transiently expressing the proteins, incubated with or without 2 mM DTT or 5 μg/mL tunicamycin for 3 hr; 150 mM Tris-HCl pH 7.5, 150 mM NaCl, 1.5% Triton X-100, 2 hr at 4°C.

For the substance “maize Rtn2, split-ubiquitin two-hybrid fusion mAIM1,5”, in experiment [1] (prey pPR3C-Rtn2(mAIM1,5)), the response is 16%.
For HA-Rtn2 mAIM1,2,5,6, the ratio to parent in the experiment with GFP-Atg8a is 0.02.
HA-Rtn2 mAIM1: the ratio to parent with GFP-Atg8a amounted to 0.87.
As for “maize Rtn2, split-ubiquitin two-hybrid fusion mAIM1”, the response in experiment [1] (prey pPR3C-Rtn2(mAIM1)) worked out at 33%.
For the substance HA-Rtn2 mAIM1,5, the ratio to parent in the experiment with GFP-Atg8a was 0.38.
As to “maize Rtn2, split-ubiquitin two-hybrid fusion mAIM1,5,6”, the response in experiment [1] (prey pPR3C-Rtn2(mAIM1,5,6)) was 12%.
In turn, GFP-Atg8a (natural protein) registered a percent of Arabidopsis protoplasts (DTT and ConA) with autophagic bodies labeled with both GFP-Atg8a and Rtn2(mAIM1)-mCherry (mCherry fusion) in the experiment with HA-Rtn2(mAIM1) (maize) of 42%. Moreover, the percent of Arabidopsis protoplasts (DTT and ConA) with autophagic bodies labeled with both GFP-Atg8a and Rtn2(mAIM1,2,5,6)-mCherry (mCherry fusion) in experiment [2] is 23%. The percent of Arabidopsis protoplasts (DTT and ConA) with autophagic bodies labeled with both GFP-Atg8a and Rtn2-mCherry (Rtn2 as mCherry fusion) with HA-Rtn2 (maize) [3] stood at 54%. In the experiment with HA-Rtn2 (maize) [4], the fold increase in binding upon DTT treatment against no DTT was 3 fold.
Take “maize Rtn2, split-ubiquitin two-hybrid fusion mAIM1,2,5,6”: the response in experiment [1] (prey pPR3C-Rtn2(mAIM1,2,5,6)) turned out to be 7%.
On to HA-Rtn2 mAIM1,5,6, for which the ratio to parent with GFP-Atg8a came out at 0.22.

(Values after article PMC7046470.)
